In US20240368668A1, “SUBSTRATES AND BIOMARKERS OF ADAMTS7” (The Broad Institute, Inc., priority 2021, published 2024) one finds logFC.mEQ.over.Luc data, which are given here for 15 substances.

This experiment concerns the target T1, mouse ADAMTS7 (Mus musculus, UniProt Q68SA9, E373Q).
T1 construct: Full-length mouse Adamts7 1-1857 (Uniprot Q68SA9, WT or E373Q catalytic mutant); expressed in transfected cells; host or cells: Human Coronary Artery Smooth Muscle Cells (HCA-SMC, Lonza), adenovirus 50 MOI
T1 sequence (Q68SA9 221-1657 E373Q): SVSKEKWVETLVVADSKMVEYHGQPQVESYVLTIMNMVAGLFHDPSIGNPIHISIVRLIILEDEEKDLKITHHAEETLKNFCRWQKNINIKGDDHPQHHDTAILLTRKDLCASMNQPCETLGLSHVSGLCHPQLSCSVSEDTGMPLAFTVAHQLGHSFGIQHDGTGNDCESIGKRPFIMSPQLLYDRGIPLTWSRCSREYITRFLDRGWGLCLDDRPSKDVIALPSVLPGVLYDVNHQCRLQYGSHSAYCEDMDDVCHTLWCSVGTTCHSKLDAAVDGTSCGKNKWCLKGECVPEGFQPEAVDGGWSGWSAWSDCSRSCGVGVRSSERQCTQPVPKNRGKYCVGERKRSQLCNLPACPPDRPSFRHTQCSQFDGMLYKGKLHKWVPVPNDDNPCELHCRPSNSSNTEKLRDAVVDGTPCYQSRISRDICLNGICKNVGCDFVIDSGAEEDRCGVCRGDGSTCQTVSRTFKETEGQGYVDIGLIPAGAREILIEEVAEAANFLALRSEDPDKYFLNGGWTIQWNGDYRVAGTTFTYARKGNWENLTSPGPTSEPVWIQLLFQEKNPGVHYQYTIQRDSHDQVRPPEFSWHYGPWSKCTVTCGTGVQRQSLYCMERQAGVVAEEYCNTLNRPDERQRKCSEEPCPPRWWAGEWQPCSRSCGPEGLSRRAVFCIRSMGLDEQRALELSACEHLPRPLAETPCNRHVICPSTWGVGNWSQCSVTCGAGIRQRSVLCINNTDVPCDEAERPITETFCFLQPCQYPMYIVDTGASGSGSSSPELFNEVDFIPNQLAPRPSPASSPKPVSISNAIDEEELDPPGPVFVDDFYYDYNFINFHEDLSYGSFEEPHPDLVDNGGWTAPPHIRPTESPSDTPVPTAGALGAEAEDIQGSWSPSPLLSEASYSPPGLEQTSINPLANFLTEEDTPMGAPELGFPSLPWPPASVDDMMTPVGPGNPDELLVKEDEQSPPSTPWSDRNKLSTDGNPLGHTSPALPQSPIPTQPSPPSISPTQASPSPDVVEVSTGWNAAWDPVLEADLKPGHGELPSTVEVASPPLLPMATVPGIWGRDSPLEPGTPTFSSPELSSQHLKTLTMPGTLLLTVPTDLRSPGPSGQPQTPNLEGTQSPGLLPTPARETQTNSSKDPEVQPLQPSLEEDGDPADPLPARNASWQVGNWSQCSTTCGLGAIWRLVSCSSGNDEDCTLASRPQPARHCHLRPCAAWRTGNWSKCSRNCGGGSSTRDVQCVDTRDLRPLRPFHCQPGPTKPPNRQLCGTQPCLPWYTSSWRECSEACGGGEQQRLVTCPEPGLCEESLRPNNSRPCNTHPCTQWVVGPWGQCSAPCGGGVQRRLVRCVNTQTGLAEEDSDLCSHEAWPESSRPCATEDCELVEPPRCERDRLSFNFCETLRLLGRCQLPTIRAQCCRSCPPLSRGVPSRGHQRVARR
Kind of experiment: TMT10 TAILS N-terminomics, HUVEC experiment (process replicates, trypsin/AspN digest). Format: cell-based, human. Particulars: HUVEC TAILS HC; log fold change of N-terminal peptide, Ad-mADAMTS7 EQ over Luc. The procedure, abridged: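 Full-length mouse ADAMTS7 (WT or E373Q mutant, C-terminal 3xFLAG) or luciferase was transduced via adenovirus, 50 MOI, into HCA-SMC (SMC1, SMC2) or HUVEC. SMC1: pooled media, technical triplicates 400 ug; SMC2: process triplicates 300 ug; HUVEC: process triplicates 200 ug, bFGF2 10 ng/ml.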
“COL18A1_1505 (LQPPVVQLHDSNPYPR; listed as Homo sapiens)” showed a logFC.mEQ.over.Luc of −0.84.

Consider “LTBP2_79 (VAGLQPVER; listed as Homo sapiens)”, for which the logFC.mEQ.over.Luc is given as −0.38.

“LTBP2_250 (SAAGEGTLAR; listed as Homo sapiens)” displayed a logFC.mEQ.over.Luc of 0.12.

In turn, “LTBP2_502 (LVENSVETRPPPWLPASPGHSLW; listed as Homo sapiens)” returned a logFC.mEQ.over.Luc of −0.22.

In the case of “LTBP3_208 (FLVPLGPGQISA; listed as Homo sapiens)”, the logFC.mEQ.over.Luc is on record as −0.60.

As for “MAP4_815 (AVASTGPSSR; listed as Homo sapiens)”, the logFC.mEQ.over.Luc was found to be 0.36.

For the substance “MAP4_816 (VASTGPSSR; listed as Homo sapiens)”, the logFC.mEQ.over.Luc came to 0.08.

“NID1_360 (FHQQHPQVI; listed as Homo sapiens)” came in with a logFC.mEQ.over.Luc of −0.30.

Substance “NID2_291 (HSSVPLGR; listed as Homo sapiens)” registered a logFC.mEQ.over.Luc of −0.10.

Consider “NUCB1_317 (FLASTQR; listed as Homo sapiens)”, for which the logFC.mEQ.over.Luc amounted to 0.06.

Substance “NUCB1_389 (LQQAVLHMEQR; listed as Homo sapiens)” had a logFC.mEQ.over.Luc of −0.22.

Turning to “SERBP1_56 (QAAAQTNSNAAGKQLR; listed as Homo sapiens)”, the logFC.mEQ.over.Luc is reported as −0.20.

As for “SPOCK1_27 (LAGGAGPNHGNFL; listed as Homo sapiens)”, the logFC.mEQ.over.Luc is −0.17.

In turn, “SRGN_59 (LLPGESNKIPR; listed as Homo sapiens)” had a logFC.mEQ.over.Luc of −0.13.

Turning to “THBS2_290 (LSENLKR; listed as Homo sapiens)”, the logFC.mEQ.over.Luc is given as 0.64.
